In IntAct's records for PubMed 23260655:

B1: Chromobox protein homolog 8 (Homo sapiens), Q9HC52 (parent)
chain: MELSAVGERVFAAEALLKRRIRKGRMEYLVKWKGWSQKYSTWEPEENILDARLLAAFEEREREMELYGPKKRGPKPKTFLLKAQAKAKAKTYEFRSDSARGIRIPYPGRSPQDLASTSRAREGLRNMGLSPPASSTSTSSTCRAEAPRDRDRDRDRDRERDRERERERERERERERERERGTSRVDDKPSSPGDSSKKRGPKPRKELPDPSQRPLGEPSAGLGEYLKGRKLDDTPSGAGKFPAGHSVIQLARRQDSDLVQCGVTSPSSAEATGKLAVDTFPARVIKHRAAFLEAKGQGALDPNGTRVRHGSGPPSSGGGLYRDMGAQGGRPSLIARIPVARILGDPEEESWSPSLTNLEKVVVTDVTSNFLTVTIKESNTDQGFFKEKR

Variants of: B1
Settings: with af9_mouse Mllt3, A2AM29
Sequence of af9_mouse Mllt3, A2AM29 (A2AM29 whole entry): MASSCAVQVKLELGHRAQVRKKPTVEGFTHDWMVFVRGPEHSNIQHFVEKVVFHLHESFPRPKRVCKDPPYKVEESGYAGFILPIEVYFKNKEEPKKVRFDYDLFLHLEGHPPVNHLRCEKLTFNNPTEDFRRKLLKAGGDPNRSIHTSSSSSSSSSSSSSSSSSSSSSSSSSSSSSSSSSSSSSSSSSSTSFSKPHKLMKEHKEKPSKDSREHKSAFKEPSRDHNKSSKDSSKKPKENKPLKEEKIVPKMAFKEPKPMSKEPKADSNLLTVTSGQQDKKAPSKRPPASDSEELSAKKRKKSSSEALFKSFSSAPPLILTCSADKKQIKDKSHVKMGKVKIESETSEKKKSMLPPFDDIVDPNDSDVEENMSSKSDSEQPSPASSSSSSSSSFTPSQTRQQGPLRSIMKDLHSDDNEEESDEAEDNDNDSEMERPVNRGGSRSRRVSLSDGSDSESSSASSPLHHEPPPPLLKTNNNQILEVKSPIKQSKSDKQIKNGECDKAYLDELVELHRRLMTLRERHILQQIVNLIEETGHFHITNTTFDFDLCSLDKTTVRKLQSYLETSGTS

effect of a mutation on the interaction | Variant
increasing interaction strength | MELSAVGERVFAAEALLKRRIRKGRMEYLVKWKGWSQKYSTWEPEENILDARLLAAFEEREREMELYGPKKRGPKPKTFLLKAQAKAKAKTYEFRSDSARGIRIPYPGRSPQDLASTSRAREGLRNMGLSPPASSTSTSSTCRAEAPRDRDRDRDRDRERDRERERERERERERERERERGTSRVDDKPSSPGDSSKKRGPKPRKELPDPSQRPLGEPSAGLGEYLKGRKLDDTPSGAGKFPAGHSVIQLARRQDSDLVQCGVTSPSSAEATGKLAVDTFPARVIKHRAAFLEAKGQGALDPNGTRVRHGSGPPSSGGGLYRDMGAQGGRPSLIVRIPVARILGDPEEESWSPSLTNLEKVVVTDVTSNFLTVTIKESNTDQGFFKEKR [A335V]
